Measurements as given in the Immune Epitope Database (IEDB).

Tests used:
HLA-A*11:01 [1] = assay: IEDB peptide-MHC binding, purified MHC/direct/fluorescence; filed as Kd, often an IC50 or EC50 that approximates it; ≥ and ≤ were set here for values at or beyond the usual limits of such assays; details: source organism: Salmonella enterica subsp. enterica serovar Typhi
HLA-A*69:01 = assay: as above
HLA-B*07:02 = assay: as above
HLA-A*30:01 = assay: IEDB peptide-MHC binding, purified MHC/competitive/radioactivity; filed as Kd, often an IC50 or EC50 that approximates it; ≥ and ≤ were set here for values at or beyond the usual limits of such assays
HLA-A*02:01 [2] = assay: IEDB peptide-MHC binding, purified MHC/competitive/fluorescence; filed as Kd, often an IC50 or EC50 that approximates it; ≥ and ≤ were set here for values at or beyond the usual limits of such assays
HLA-A*02:01 [3] = assay: IEDB peptide-MHC binding, purified MHC/competitive/fluorescence; ≥ and ≤ were set here for values at or beyond the usual limits of such assays
HLA-A*30:02 = assay: IEDB peptide-MHC binding, purified MHC/competitive/radioactivity; filed as Kd, often an IC50 or EC50 that approximates it; ≥ and ≤ were set here for values at or beyond the usual limits of such assays
HLA-B*58:01 = assay: IEDB peptide-MHC binding, purified MHC/direct/fluorescence; filed as Kd, often an IC50 or EC50 that approximates it; ≥ and ≤ were set here for values at or beyond the usual limits of such assays
HLA-A*02:01 [4] = assay: as above
HLA-A*68:01 = assay: IEDB peptide-MHC binding, purified MHC/competitive/radioactivity; filed as Kd, often an IC50 or EC50 that approximates it; ≥ and ≤ were set here for values at or beyond the usual limits of such assays
HLA-A*03:01 [5] = assay: as above
HLA-A*31:01 = assay: as above
HLA-A*33:01 = assay: as above
HLA-A*24:02 = assay: as above
HLA-A*11:01 [6] = assay: as above
HLA-A*03:01 [7] = assay: IEDB peptide-MHC binding, purified MHC/direct/fluorescence; filed as Kd, often an IC50 or EC50 that approximates it; ≥ and ≤ were set here for values at or beyond the usual limits of such assays; details: source organism: Francisella tularensis subsp. holarctica OSU18
HLA-B*15:01 = assay: as above; details: source organism: SARS-CoV1
HLA-B*40:01 = assay: as above; details: source organism: Influenza A virus (A/Denver/1957(H1N1))
HLA-A*02:02 = assay: IEDB peptide-MHC binding, purified MHC/competitive/radioactivity; filed as Kd, often an IC50 or EC50 that approximates it; ≥ and ≤ were set here for values at or beyond the usual limits of such assays
HLA-A*02:03 = assay: as above
HLA-A*02:06 = assay: as above
[8] = source organism: Vaccinia virus WR
[9] = source organism: Dengue virus 1 Singapore/S275/1990
[10] = source organism: Sudan ebolavirus
[11] = source organism: Dengue virus 2 Peru/IQT2913/1996
[12] = source organism: Entamoeba histolytica HM-1:IMSS
[13] = source organism: Dengue virus 3 Martinique/1243/1999
[14] = source organism: Zaire ebolavirus
[15] = source organism: Lymphocytic choriomeningitis virus (strain Armstrong)
[16] = source organism: Listeria monocytogenes
[17] = source organism: Vaccinia virus Copenhagen
[18] = source organism: Dengue virus 2 Jamaica/1409/1983
[19] = source organism: Dengue virus 4 Philippines/H241/1956
[20] = source organism: SARS coronavirus Tor2
[21] = source organism: Orthohantavirus hantanense

## AAGLPAIFV
HLA-A*11:01 [1]
  Kd: 3860 nM
HLA-A*69:01; source organism: Salmonella enterica subsp. enterica serovar Typhi
  Kd: 1070 nM

## APRALLLLL
HLA-B*07:02; source organism: Homo sapiens
  Kd: 2100 nM

## ASKFVYVSV
HLA-A*30:01; [8]
  Kd: 3.09 nM

## ATHKAPQPA
HLA-A*69:01; source organism: Haemophilus influenzae
  Kd: 3820 nM

## AVKSEHTGK
HLA-A*30:01; [9]
  Kd: 64.3 nM

## CLMTYSHHA
HLA-A*02:01 [2]; source organism: Escherichia coli F11
  Kd: 0.9 nM

## CLPPPPDGV
HLA-A*02:01 [3]; [10]
  IC50: 1490 nM

## DKKGKVVGLY
HLA-A*30:02; [11]
  Kd: 2.56 nM

## DLVHFASPL
HLA-A*02:01 [3]; source organism: Hepatitis B virus
  IC50: ≥ 366000 nM

## DPSGAYFAW
HLA-B*07:02; source organism: Homo sapiens
  Kd: 17600 nM
HLA-B*58:01; source organism: Homo sapiens
  Kd: 1570 nM

## EINPFYQDV
HLA-A*02:01 [4]; [12]
  Kd: 19500 nM
HLA-A*69:01; [12]
  Kd: 7.6 nM

## ESRTIRVLK
HLA-A*30:01; [13]
  Kd: 8.81 nM
HLA-A*68:01; [13]
  Kd: 237 nM

## EVTEIDQLV
HLA-A*02:01 [3]; [10]
  IC50: ≥ 86100 nM

## FKAALSSLA
HLA-A*02:01 [3]; [14]
  IC50: ≥ 109000 nM

## FLHGGDFGV
HLA-A*69:01; source organism: Mycobacterium tuberculosis
  Kd: 690 nM

## FLIKFLLIH
HLA-A*02:01 [3]; [14]
  IC50: ≥ 296000 nM

## FLTCTDRSV
HLA-A*02:01 [2]; source organism: Human alphaherpesvirus 1 strain 17
  Kd: 83 nM

## FLYGWLFIL
HLA-A*02:01 [4]; source organism: Francisella tularensis subsp. tularensis
  Kd: 102 nM

## FTNDSIISH
HLA-A*03:01 [5]; [15]
  Kd: 303 nM
HLA-A*30:01; [15]
  Kd: ≥ 45500 nM
HLA-A*31:01; [15]
  Kd: 1990 nM
HLA-A*33:01; [15]
  Kd: 342 nM
HLA-A*68:01; [15]
  Kd: 81.9 nM

## GLYEWISEQ
HLA-A*02:01 [4]; [16]
  Kd: 177 nM
HLA-A*69:01; [16]
  Kd: ≥ 20000 nM

## GNLSPETLV
HLA-A*02:01 [3]; source organism: Vaccinia virus
  IC50: ≥ 106000 nM

## GRLIWTLDA
HLA-A*02:01 [3]; [10]
  IC50: ≥ 593000 nM

## GSRKSSSIL
HLA-A*30:01; [17]
  Kd: 1.58 nM

## GYSQIGAGVY
HLA-A*30:02; [18]
  Kd: 127 nM

## HIPEGETTL
HLA-A*02:01 [3]; [10]
  IC50: 56200 nM

## HVSISSCNG
HLA-A*30:01; [8]
  Kd: 502 nM

## IDFLLRRWG
HLA-A*02:01 [3]; [10]
  IC50: 26200 nM

## INRFTMRHK
HLA-A*30:01; [11]
  Kd: 1110 nM

## KAKRGTAQI
HLA-A*30:01; [9]
  Kd: 289 nM

## KAKWLTPFE
HLA-A*30:01; [8]
  Kd: 667 nM

## KFRPLMIFM
HLA-A*30:01; [8]
  Kd: 1.8 nM

## KHMIAGVLF
HLA-A*24:02; source organism: Dengue virus 3 Singapore/8120/1995
  Kd: 683 nM

## KIKAGPRYV
HLA-A*30:01; [8]
  Kd: 6.93 nM

## KIKLILANK
HLA-A*03:01 [5]; [8]
  Kd: 21.6 nM
HLA-A*11:01 [6]; [8]
  Kd: 146 nM
HLA-A*30:01; [8]
  Kd: 109 nM
HLA-A*31:01; [8]
  Kd: 1.46 nM
HLA-A*33:01; [8]
  Kd: ≥ 25600 nM
HLA-A*68:01; [8]
  Kd: ≥ 28300 nM

## KILAKAIFK
HLA-A*03:01 [5]; [19]
  Kd: 11.9 nM
HLA-A*11:01 [6]; [19]
  Kd: 79.3 nM
HLA-A*30:01; [19]
  Kd: 292 nM

## KMLEASTIY
HLA-A*03:01 [7]
  Kd: 190 nM

## KMQRMLLEK
HLA-B*15:01
  Kd: ≥ 40300 nM
HLA-A*31:01; [20]
  Kd: 19 nM
HLA-A*33:01; [20]
  Kd: 13700 nM
HLA-A*68:01; [20]
  Kd: 1380 nM

## KQLEWKWGI
HLA-A*02:01 [4]; [12]
  Kd: 0.7 nM
HLA-A*69:01; [12]
  Kd: 23.2 nM

## KSFFSRLNW
HLA-B*58:01; source organism: Influenza A virus (A/Yilan/515/03(H3N2))
  Kd: 139 nM

## KSHTLWSNG
HLA-A*30:01; [18]
  Kd: 425 nM

## KVKKRYPEF
HLA-A*30:01; [8]
  Kd: 103 nM

## KVVRVQRPA
HLA-A*30:01; source organism: Dengue virus 1 Brazil/97-11/1997
  Kd: 61.4 nM

## KYQLAVTIM
HLA-A*24:02; [18]
  Kd: 29.2 nM

## LAAVSVSPLL
HLA-A*30:01; [18]
  Kd: 6020 nM

## LALLAAFKVR
HLA-A*30:01; [18]
  Kd: 74.8 nM

## LEDSHNGKL
HLA-B*40:01
  Kd: 73 nM

## LHQVFGAIY
HLA-A*30:02; [18]
  Kd: 42.7 nM

## LLPDSDVFV
HLA-A*02:01 [2]; [8]
  Kd: 1.1 nM

## LNIMNKLNI
HLA-A*02:01 [2]; [17]
  Kd: 406 nM

## LRFLTIPPTA
HLA-A*30:01; [18]
  Kd: 951 nM

## MGRFGYVPY
HLA-A*30:01; [8]
  Kd: 14.8 nM

## MLLTFLTSLL
HLA-A*02:02; [20]
  Kd: 0.734 nM
HLA-A*02:03; [20]
  Kd: 7.34 nM
HLA-A*02:06; [20]
  Kd: 24.6 nM

## MLNRVQILM
HLA-A*02:02; [8]
  Kd: 4.75 nM
HLA-A*02:03; [8]
  Kd: 26.9 nM
HLA-A*02:06; [8]
  Kd: 2560 nM

## MMPIKSIVTL
HLA-A*02:01 [2]; source organism: Variola virus
  Kd: 5.1 nM

## MRRERAAYV
HLA-A*30:01; [8]
  Kd: 21.8 nM

## MTFGDIPLV
HLA-A*30:01; [8]
  Kd: 235 nM

## NAAGIAWIP
HLA-A*02:01 [3]; [10]
  IC50: 64500 nM

## NAHEGQLVI
HLA-A*69:01; [21]
  Kd: 3400 nM
HLA-B*07:02; [21]
  Kd: ≥ 25300 nM

## NIDSIMSMM
HLA-A*02:02; [8]
  Kd: 25 nM
HLA-A*02:03; [8]
  Kd: 874 nM
HLA-A*02:06; [8]
  Kd: 4720 nM
